Data set [1] deals with nucleocapsid protein (N) 175-245 (UniProt P0DTC9). The conditions noted are these: sites S188.
For data set [2] the target is unchanged. The conditions noted are these: sites S188. The source holds these as a separate data set.
Data set [3] concerns the target nucleocapsid protein (N) 175-365 (UniProt P0DTC9). The conditions noted are these: sites S188.
The data set “AUC” concerns the molecule itself. Description: AUC.

Four molecules from publication PMC11180338 (The Journal of Biological Chemistry, 2024) can be followed below.

Where two headings read alike, the source gives them in different places.

Take “nucleocapsid protein (N) 175-245 (from UniProt P0DTC9)”: the “binding against the reference” value in data set [1] and in data set [2] was “weaker” in each case.
With “nucleocapsid protein (N) 175-365 (from UniProt P0DTC9)”, the “binding against the reference” value in data set [3] is on record as “same”.

B1: WT-N_(175–245) GFP, GFP-tagged N_(175–245) (domain or fragment)
chain: GSRGGSQASSRSSSRSRNSSRNSTPGSSRGTSPARMAGNGGDAALALLLLDRLNQLESKMSGKGQQQQGQT
For B1, in the data set “AUC”, the affinity, expressed as Kd, was 77 µM and the stoichiometry N (in general, a count of units in the complex or per binding partner) worked out at 2.

B2: pSer188-N_(175–245) GFP (domain or fragment)
chain: GSRGGSQASSRSSSRSRNSSRNSTPGSSRGTSPARMAGNGGDAALALLLLDRLNQLESKMSGKGQQQQGQT
modifications: phosphoserine at 188
B2: in the data set “AUC”, the affinity, expressed as Kd, was 235 µM.
